The record followed here is the DeepSol protein solubility set.

The nature of the series: soluble on expression in E. coli; label from the status in PepcDB or PDB records.
As to “MSLGQDIGFYLGRIDSEMDSWVADPDEALKASNKLFFLNPFQANKVGIKGKANSNPNTQLSGDTGEGKSFAAKLIHLYSSFLKVKTLYIDPKLEMEANYKRVLKEFEEQDVYPEIQKYIRSLSFATLDSTKNENLGVLDPLVFLPKKRAKGLIVSMIGELIKYDSHISFKTELSHQLSLFADRRARGEQVGTLTVLKELYNHSERQDVRDTAESLIEDIKDSILGLVFSDGKNQAVDLNARNVILGVSGLDLPQDDSIVHSDLTLQQRYSLVIMYALGEFVIQFAERDYKEHTLEIVDEAWFLETSAVGRGIFNRMKRLNRRFNNFLYFVSQEIDDSNRGKDEKTAFGSYFCFRNDDSTKVDSILRRLGVQPTEESRKWFDNLSLGQCLYRDSANRVERVTFDGLFPEVKELFKTVENDSLEGHHHHHH”, the “soluble on expression in E. coli” value is on record as “soluble”.

Regarding “MSLGQYDMQLIMGRTRWNGEFIGFERSTEKGVFSSNLKTEFMVELAESGGVGVFLNRRRVAALSLDGSRRALEAVLSCQKAFMTAQSDTRDEPSTDTKPKRHTKSSGTGFYVSDSGHIVTNHHVIAECSTINVLPPGGAAVSATLVAKDKTNDLAILKTASSPAAIPGLRSQMRLGEAVYVFGFPLTGILSTSGNFTAGAITATTGMEDDTRLAQISAPVQPGNSGGPLLDKYGNVIGVIVSKLNALNIAAATKDIPQNVNFAIKTGIATNFLDSSGVVPTGKVSTRELAPEAIADLAKIFTVQVLCNEGHHHHHH”, the “soluble on expression in E. coli” value was “not soluble”.

With “MSLGRQEMDEHVAIETPYAIALNDRVIGSSMVLPVDLEEFGAGFLFGQGYIKKAEEIREILVCPQGRISVYADVENEEPREVIITSGCGGTGKIPKEMLEGEFAPLADYCLPFAEIKSFIREALHSSPLGPQTHCVHGCGLWNNGRLQVYHEDVGRHNAVDKVLGSILLGRASNNSAVYTTGRLTSDMVLKCARIGIPIIMSRTSPSSLGLALAKRSGATLVAYSRPERINVFNAPERILTEGHHHHHH”, the “soluble on expression in E. coli” value was “not soluble”.

For the sequence “MSLGYAFPSILGNLMSKIYQMDAVDWLKTLENCSVDLFITDPPYESLEKYRQIGTTTRLKESKSSSNQWFSVFPNTRFEELFREVYRVLKKGSHFYLFCDQETMFLAKPIAESVGFKFWKPIVWDKCAIGMGYHYRARYEFILFFEKGKRKLNDLSVPDVLEYKRVWKGYPTEKPVELLEVLIRQSSSENEIVADSFFGSGSTLIAANNLSRKYIGCDISSSAHEYFKNRAEGHHHHHH”, the “soluble on expression in E. coli” value is listed as “soluble”.

Take “MSLHGEKAPFPLTLIHINDLHARFDETNQKSSTCTNSKECIAGIARVYHTIKQLKSEYKTKNPLYLNAGDNFQGTLWYNLLRWNVTAYFIKELPPDAMTLGNHEFDHSPKGLAPYLAELEKMKIPTVVANLEKNGEPALKDSKIARSIVLKVGNRKVGVIGALYDKTHLVAQTGMVTLTNSIEAVRKEAQELKKKNVNIIVVLSHCGLDGDKQLAEEAGDLIDVIVGAHSHSLLLNKDAKVPYDTKYDTIEGDYPLVVKKSNNHTVLITQARSFGKYVGRLTVNFDCEGEVQSWEGYPIYMNNSVKEGHHHHHH”: the “soluble on expression in E. coli” value is listed as “soluble”.

Turning to “MSLHGVPFGTVPPMGTIGLIAAMPDEIRPFLRLASPAARLHGGRFPIWRLRVGNDDIVLVESGMGIDRATAATDALVAAASPVAILSFGFGGAALPGLKVGDLAVGMTSWFAGTEGIVLRRGIDRNLAEKLAEELNRICNGVTRGEIITSARILKKGDLAHSLPNGISSPILDMETAAVAEAAHRRGIPIVALRAISDDAEEELSFSLDEFTDDDMAIRPRKVLATIARKPWIIPQLLRLARNSRIAGKRLAQGVLATAEFLSRGEGHHHHHH”, the “soluble on expression in E. coli” value is on record as “not soluble”.

Regarding “MSLHIIILSPVMPIWDRGVFCSSFTKLCLARGFHITLLDTLSLFPSHSAFCNNSTVEILPFITEKLKKYFKEPSVLVGFSMAGMLVQILAARLPNVQAVLAVNAPGYPDKPLKRQIGCILTFLKNKDLSGALEILNSFMCPRGGREKRVLWEIPDEQKSVAIERMTRGFTFLLGGDARDEIIKYTGKFLALIGEKSQLATLANQTKSQCLNHEYQVISGAGTRLWDDNPAMTNAIVHKWIDAL”, the “soluble on expression in E. coli” value is reported as “not soluble”.

Take “MSLHPVSISLSSYGADLVRSRGQASFLPLLAMAGAQRVELREELFAGPPDTEALTAAIQLQGLECVFSSPLELWREDGQLNPELEPTLRRAEACGAGWLKVSLGLLPEQPDLAALGRRLARHGLQLLVENDQTPQGGRIEVLERFFRLAERQQLDLAMTFDIGNWRWQEQAADEAALRLGRYVGYVHCKAVIRNRDGKLVAVPPSAADLQYWQRLLQHFPEGVARAIEYPLQGDDLLSLSRRHIAALARLGQPQEERQHG”: the “soluble on expression in E. coli” value is given as “soluble”.

As for “MSLIAHSNEIARPIFKSQDQLFTLYQGDCNEVLPQFENQFDLIFADPPYFLSNDGLSIQSGKIVSVNKGDWDKEDGINGIDEFNYQWINNAKKALKDTGSLLISGTYHNIFSLGCVLQKLDFKILNLITWQKTNPPPNFSCRYLTHSAEQIIWARKSRKHKHVFNYEVLKKINNDKQMRDVWSFPAIAPWEKVNGKHPTQKPLALLVRLLLMASDENSLIGDPFSGSSTTGIAANLLKREFIGIEKESEFIKISMDRKIELDARYKEIRSKIKDLNHQEGHHHHHH”, the “soluble on expression in E. coli” value was “not soluble”.

For “MSLIIMKAITVLSGGLDSTVVTLIAKDLGYEVTAITFNYGQRAAKREINSAKKICEILGIEHIVVDLPFVKQFGKSSLITEKEIPTLKMEELDSEKAYETMKAVWVPARNVIMFGIASGFAEALDAEKIFIGINKEEGVTFPDNTIEFVEAFNKVLEYGTLNKVKIEAPLYDKTKEEIVKLGAELEKKLGVEVLKYSYSCYHDNGEDFLHCGKCESCMRRKRAFLMAGVEDKTKYIEEGHHHHHH”, the “soluble on expression in E. coli” value is “soluble”.

For the sequence “MSLIKDIRTYKLCYEGINDERDALAIKGLAEHPMEIVATEIETSDGYVGYGESLAYGCSDAVQVTIEKILKPLLLKEDEELIEYLWDKMYKATLRFGRRGIAIAGISGVDTALWDIMGKKAKKPIYKLLGGSKRKVRAYITGGYYSEKKDLEKLRDEEAYYVKMGFKGIKVKIGAKSMEEDIERLKAIREVVGEDVKIAVDANNVYTFEEALEMGRRLEKLGIWFFEEPIQTDYLDLSARLAEELEVPIAGYETAYTRWEFYEIMRKRAVDIVQTDVMWTGGISEMMKIGNMAKVMGYPLIPHYSAGGISLIGNLHVAAALNSPWIEMHLRKNDLRDKIFKESIEIDNGHLVVPDRPGLGYTIRDGVFEEYKCKSEGHHHHHH”, the “soluble on expression in E. coli” value is on record as “soluble”.

As to “MSLIKMQVWKKLFAKSPFKPLIRHAEVVVQTVETLEKALDSWARGDYENMKEYAKKVDDLEDIADKIKSELRDSITSKLLMPVQRTDILEYLHMQDKIADAAEDTAKWLLIKRNLDSIPNDIKDIILKMGKESIKAAKLVYEAIKQLDNVLESGFAEKEIKKEYKIIKQIEEVESKIDGLDSKLMEIVFTSELDWKDGLYILNIARTLSNISDKAKDTAERIRVLMNKEGHHHHHH”, the “soluble on expression in E. coli” value is given as “not soluble”.

“MSLILASLVRYYRRLATETDETGNPKVPSYGFSEEKIGWILVLDKEGRLKTVVPNLTADKKPQPKLMSVPRPEKRTSGIKPNFLWDKTAYALGVEANKNKAEAKEKPFTPSEKTFEAFKQYHLDLLQNSEDEGLQALCRFLQNWQPAHFAAENLPAEMLDSNTAFSLEKPTALIHKREAAQTLWAGCLKSDEALESLCLISGDTAPIARLHPAIKGVFGGQSSGGSIISFNKEAFSSFGKEQGANAPVSEQSAFAYTTALNYLLRRENNHCLTIGDASTVFWAEADDIVDEGHHHHHH”: the “soluble on expression in E. coli” value was “not soluble”.

For “MSLILIKNVSYYIDNNLNVHENCDILIEKVENSEIKLTTGKNLLEKLNLNQNDLKIISGEKKCAIPGLYNAHTHVPMTLLRGIADDMILQDWLNQKIWPNEAKLNKNDVYYGSLLGCLEMLRFGVTSFNEMYFFSEEILKATKEIGLNAQVSYPIIDFGTPEEQSIDKLLTSAESFVKNNVGEKNIKVGIAPHAPYTCSEETYQKCSEISNDYNVNMHTHVSETRYEVVELENKIGMRPVEYLEKIGVLNEKLHAAHCVWITKDEAKKLAKNNAKVLHCPTSNMKLASGGVMPLFELLEYGADISVGTDGPASNNNLDILKEMKMTSLLHKAHRWDPTVAGIDTVLKMGINSESIEIKNNDIILIDLDSAHLRPFNNIKSNIVYSAFGNDVDTVIVGGNILLENKKYKFSETFISNIYKNIQKITEKFEEGHHHHHH”, the “soluble on expression in E. coli” value is “not soluble”.

As for “MSLINDLRTVPAALDRLVRQLPDHTALIAEDRRFTSTELRDAVYGAAAALIALGVEPADRVAIWSPNTWHWVVACLAIHHAGAAVVPLNTRYTATEATDILDRAGAPVLFAAGLFLGADRAAGLDRAALPALRHVVRVPVEADDGTWDEFIATGAGALDAVAARAAAVAPQDVSDILFTSGTTGRSKGVLCAHRQSLSASASWAANGKITSDDRYLCINPFFHNFGYKAGILACLQTGATLIPHVTFDPLHALRAIERHRITVLPGPPTIYQSLLDHPARKDFDLSSLRFAVTGAATVPVVLVERMQSELDIDIVLTAYGLTEANGMGTMCRPEDDAVTVATTCGRPFADFELRIADDGEVLLRGPNVMVGYLDDTEATAAAIDADGWLHTGDIGAVDQAGNLRITDRLKDMYICGGFNVYPAEVEQVLARMDGVADAAVIGVPDQRLGEVGRAFVVARPGTGLDEASVIAYTREHLANFKTPRSVRFVDVLPRNAAGKVSKPQLRELGEGHHHHHH”, the “soluble on expression in E. coli” value is “not soluble”.

Turning to “MSLINFGIIGAGNIANRFADSLSHFKDANLYAVACRGIEKAAAFQRKHPCQLIYDDYDELLSNKDIDIVYIAVPHGFHYLWISKALKKGKAVLCEKPATLNAEQMKSVQKLAEAKNIFFMEAMKSRFTPAYQEIKTIINNGEIGKIISIDSSFCREISKKTATYHFQPIQGGCLLDIGIYNVALTEDFAKTLPKVEVLENKMDISGVESYTKAKLLFPNLSATIECAFDRNKQTEATIKGEKGQIEIKNFHRAESFIVKTSSGTKNYHIAYEQDDFHGEIAHVIQCYGKNKTESNNMPISDSVNCALIIEKIKNQIPELAEGHHHHHH”, the “soluble on expression in E. coli” value is “soluble”.

For the sequence “MSLINLDVWIDLTNAPHVHYFCQLIKKFEKEGIEYLLTFRDSGNLAKLVEIYNFVGKCIGKHGNTLKDKLIFYAERVIGLTELISNVKPKVAIAKHSVELPRVAFGLNIPVIFVVDNEHAEAQNKLTLPLADEIIKPIATDENKLKEFGGRNFISFEGTCEVANVNSRLKGYYPIDNEILKKLGICDDNPTIVMRPCPNSSYCNGHKDILPKIIEKLQKRIDCNIVVFPRDEHQKEIYREVNAIVPKETIDALSLLYNSDFMIGAGGTMNRESAILGIPTVSCYPQELLGVDKYLIEKDRMIHTNDIKEIINYVEDNLGKRMGVIELEDPTDLMFERVCNYLKEGHHHHHH”, the “soluble on expression in E. coli” value is “soluble”.

Turning to “MSLINRFSVPLLETSTIDLANVASNKIEPETVLTNARILSTYSDRILKDKELWIFKGRIACIKPSGSYKEFFQMDKSKIYEVNNNILAPGLIDPHMHIESSMMTGCAYAEAALLNGTTTIFCDSHEIGNVCDTDGIEWMLQDCRESPISIFLTLPSTIPATNKYLETAGGDLTDKKTAILFDKWPEIKGLGEKMDFVSVCEGNERSHSIISETLKRNLPVSGHVFGREFVAAYAASGITDTHEAEDKLFTNDLLDAGLWIFLRGGNPKTPWNSIKEAIKVITESEASTKRICVCTDDRDADDLFNFGLDWVVRQANTLGINNTTAWSMGSLHPATRFNIDRDYGALGHSRRADIVMINDNLEVLNTWLGGHLAVENKKITSLIDKQLSENRYQYPKRAYNTVILPKKINFIPDMPKESEFKINVIKTELPGIMTFKETIHIKEGHHHHHH”, the “soluble on expression in E. coli” value is on record as “soluble”.

Take “MSLIPKFRAWDTYEKEMLENVTPLFDDSNSMIAIITDFQIKGSPGTSEIEIGSYDTTFNWDEFPYVIMQSTGLKDKNGVEIFEGDILVYDAPKKYAHRRSMHEIAYADGRFFWEFLDLVFCQSNILYRDGYLVIGNIHENPELLEGNEGHHHHHH”: the “soluble on expression in E. coli” value was “soluble”.
